Results: US20250011363A1, “OPTIMIZED SHORTENED PEPTIDE THAT BINDS TO ACETYLCHOLINE RECEPTOR, AND USE THEREOF” (SKINMED CO., LTD., priority 2021, published 2025)

Key:
[1] = target: acetylcholine receptor protein; assay: SPR, affinity against the reference Synake
[2] = target: acetylcholine receptor protein; assay: SPR, receptor on CM5 chip, method of Example 1 (FIG. 3)
[3] = target: acetylcholine receptor protein; assay: SPR (Biacore 3000), receptor immobilised on CM5 chip, peptide in solution; given as 'affinity'
acetylcholine receptor [4] = assay: SPR, acetylcholine receptor immobilized on CM5 chip, peptide at 10 uM
acetylcholine receptor [5] = assay: SPR, AchR immobilized on chip
acetylcholine receptor [6] = assay: SPR, peptide at 10 uM on immobilised AchR
[7] = target: acetylcholine receptor protein; assay: SPR, concentration series (FIG. 9); given as 'affinity'
acetylcholine receptor [8] = assay: SPR, acetylcholine receptor on CM5 chip, peptide 10 µM
acetylcholine receptor [9] = assay: SPR, acetylcholine receptor immobilized on chip, peptide at 10 uM

Work on RKSLLR [Espep2-6mer] yielded a fold higher affinity compared to Synake [1] of 40 times, an RU value [2] of 177 RU and a Kd [3] of 57 µM.

RYTFR [5mer-899] showed a Binding affinity (RU) (acetylcholine receptor [4]) of 31 RU.

KNNNR [5mer-1199] was tested, and the Binding affinity (RU) (acetylcholine receptor [4]) was 29 RU.

Work on RHSVK [5mer-900] yielded a Binding affinity (RU) (acetylcholine receptor [4]) of 29 RU.

RKNEK [5mer-1200] was tested, and the Binding affinity (RU) (acetylcholine receptor [4]) was 16 RU.

RKRIRR [6mer-1-43] was tested, and the Binding affinity (RU) (acetylcholine receptor [5]) was 548 RU, the Binding affinity (RU) (acetylcholine receptor [6]) was 548 RU and the Kd [7] was 0.609 µM.

Work on KVFRRR [6mer-2-598] yielded a Binding affinity (RU) (acetylcholine receptor [8]) of 146 RU.

RRRYRK [6mer-2-599] gave a Binding affinity (RU) (acetylcholine receptor [8]) of 121 RU.

In the case of RSQLKK [6mer-2-600], the Binding affinity (RU) (acetylcholine receptor [8]) is reported as 139 RU.

Work on KGRRK [5mer-299] yielded a Binding affinity (RU) (acetylcholine receptor [9]) of 62 RU.

Work on KWVSR [5mer-599] yielded a Binding affinity (RU) (acetylcholine receptor [9]) of 61 RU.

Binder RQYRK [5mer-300] has a Binding affinity (RU) (acetylcholine receptor [9]) of 81 RU.

KLYSK [5mer-600] was tested, and the Binding affinity (RU) (acetylcholine receptor [9]) was 64 RU.
